Target: fluorescein-labelled divalent stargazin-derived peptide ligand
Assay: fluorescence polarisation; direct titration: 50 nM fluorescein-labelled stargazin ligand (divalent or monovalent) against increasing concentrations of PDZ domains; apparent KD

SAP97 tandem PDZ domains 1 and 2 (SAP97-12), from pET-NO (domain or fragment)
Kd: 199 nM
